Data set [1] addresses His-tagged (6×) human Rab6A (human, UniProt P20340 1-208). Briefly: pull-down.
Data set [2] deals with the molecule itself.

Changes are numbered by the printed parent chain. In names and notes the source's numbering stands.

Chain of His-tagged (6×) human Rab6A (P20340 whole entry): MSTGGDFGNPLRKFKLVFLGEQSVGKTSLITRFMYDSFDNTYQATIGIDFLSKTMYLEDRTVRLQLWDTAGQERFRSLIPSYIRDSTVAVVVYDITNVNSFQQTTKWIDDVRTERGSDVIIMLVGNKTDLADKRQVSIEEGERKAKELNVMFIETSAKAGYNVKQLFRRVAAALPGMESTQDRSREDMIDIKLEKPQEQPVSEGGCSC

B1: GCC185 C-110 (fragment of the 110 C-terminal-most amino acids of GCC185) (domain or fragment, UniProt Q8IWJ2 1575-1684, looked up)
chain: LNGLLRETEATNAILMEQIKLLKSEIRRLERNQEREKSAANLEYLKNVLLQFIFLKPGSERERLLPVINTMLQLSPEEKGKLAAVAQGEEENASRSSGWASYLHSWSGLR
As for B1, the binding result in data set [1] is on record as “binds”.

B2: GCC185 C-110 I1588A/L1595A (domain or fragment, UniProt Q8IWJ2 1575-1684, looked up)
chain: B1 chain with I14A, L21A
Regarding B2, in data set [2], the stoichiometry N (usually the number of molecules, sites or subunits per partner or assembly) was 2.

The record behind these values is PMC2213607 (The Journal of Cell Biology, 2008).
